Experimental data reported in article doi:10.1101/2023.02.02.526913.
Like-named read-outs stand apart in the source and are kept apart here.

Columns and labels:
Test in all cases: cryo-EM structure
[1] = target: microtubules prepared from porcine brain tubulin (porcine) (UniProt P02550)
[2] = target: microtubules prepared from porcine brain tubulin (porcine) (UniProt P02550); remark: listed apart in the source
[3] = target: microtubules prepared from porcine brain tubulin (porcine) (UniProt P02550); remark: listed apart in the source

Chain of UniProt P02550 (P02550 whole entry, chain 1 of 2): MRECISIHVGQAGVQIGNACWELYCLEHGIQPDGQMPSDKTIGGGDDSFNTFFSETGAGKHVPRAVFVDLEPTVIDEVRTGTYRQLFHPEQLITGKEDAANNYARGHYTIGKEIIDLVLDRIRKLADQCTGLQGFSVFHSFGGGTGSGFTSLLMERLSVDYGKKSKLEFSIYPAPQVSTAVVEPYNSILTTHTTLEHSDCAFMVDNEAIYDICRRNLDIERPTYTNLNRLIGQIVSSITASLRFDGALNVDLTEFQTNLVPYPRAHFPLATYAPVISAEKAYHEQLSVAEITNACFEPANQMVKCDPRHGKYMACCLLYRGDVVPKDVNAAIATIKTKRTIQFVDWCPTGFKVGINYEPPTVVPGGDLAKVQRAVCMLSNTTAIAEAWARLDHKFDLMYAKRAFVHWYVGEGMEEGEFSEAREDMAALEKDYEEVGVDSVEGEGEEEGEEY
Chain of UniProt P02550 (P02554 whole entry, chain 2 of 2, further chain): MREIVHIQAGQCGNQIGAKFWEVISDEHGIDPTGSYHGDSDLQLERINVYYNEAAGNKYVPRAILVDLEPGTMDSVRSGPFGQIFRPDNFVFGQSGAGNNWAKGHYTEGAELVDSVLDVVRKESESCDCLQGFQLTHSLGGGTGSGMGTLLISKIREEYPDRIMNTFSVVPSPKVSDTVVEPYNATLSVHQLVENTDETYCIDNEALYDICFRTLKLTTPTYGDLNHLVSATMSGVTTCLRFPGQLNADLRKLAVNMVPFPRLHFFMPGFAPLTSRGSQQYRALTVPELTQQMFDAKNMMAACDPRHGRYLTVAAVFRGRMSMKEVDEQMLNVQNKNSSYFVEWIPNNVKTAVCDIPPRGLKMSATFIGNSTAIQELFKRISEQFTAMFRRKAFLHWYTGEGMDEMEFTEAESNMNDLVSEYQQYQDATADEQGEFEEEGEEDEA

decorated fraction of the kinesin sites on tubulin [1] [%]	decorated fraction of the kinesin sites on tubulin [2] [%]	decorated fraction of the kinesin sites on tubulin [3] [%]	Substance
9	25	–	KIF1A^P305L (KIF1A(aa1-393, P305L)-LZ-strepII) (from UniProt Q12756 1-393) (domain or fragment)
–	32	74	KIF1A(aa1-393)-LZ-strepII (from UniProt Q12756 1-393) (domain or fragment)
